Tests used:
[1] = biological target: mIL-18 (purchased from PeproTech) (murine (printed as mIL-18)) (UniProt P70380); experiment: cell-based or functional assay
[2] = biological target: mAcPL and mIL-1Rrp1 cotransfected on cells (COS7 or S49.1) (murine) (UniProt Q61098); experiment: cell-based or functional assay
Chain of mAcPL and mIL-1Rrp1 cotransfected on cells (COS7 or S49.1) (murine) (Q61098 19-537, chain 1 of 2): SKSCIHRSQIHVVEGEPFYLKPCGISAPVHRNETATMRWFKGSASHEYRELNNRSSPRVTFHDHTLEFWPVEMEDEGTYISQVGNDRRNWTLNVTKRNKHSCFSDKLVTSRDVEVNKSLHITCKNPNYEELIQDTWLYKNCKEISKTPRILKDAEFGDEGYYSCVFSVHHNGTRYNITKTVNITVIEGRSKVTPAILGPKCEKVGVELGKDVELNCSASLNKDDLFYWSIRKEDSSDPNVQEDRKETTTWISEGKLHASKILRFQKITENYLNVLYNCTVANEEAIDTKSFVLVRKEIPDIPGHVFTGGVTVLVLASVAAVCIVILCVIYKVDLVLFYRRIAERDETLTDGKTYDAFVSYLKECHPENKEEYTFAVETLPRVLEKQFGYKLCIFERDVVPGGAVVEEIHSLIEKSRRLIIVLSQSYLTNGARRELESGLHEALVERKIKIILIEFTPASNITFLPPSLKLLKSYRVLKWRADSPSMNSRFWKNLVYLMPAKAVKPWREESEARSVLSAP
Chain of mAcPL and mIL-1Rrp1 cotransfected on cells (COS7 or S49.1) (murine) (chain, as listed by the source, chain 2 of 2): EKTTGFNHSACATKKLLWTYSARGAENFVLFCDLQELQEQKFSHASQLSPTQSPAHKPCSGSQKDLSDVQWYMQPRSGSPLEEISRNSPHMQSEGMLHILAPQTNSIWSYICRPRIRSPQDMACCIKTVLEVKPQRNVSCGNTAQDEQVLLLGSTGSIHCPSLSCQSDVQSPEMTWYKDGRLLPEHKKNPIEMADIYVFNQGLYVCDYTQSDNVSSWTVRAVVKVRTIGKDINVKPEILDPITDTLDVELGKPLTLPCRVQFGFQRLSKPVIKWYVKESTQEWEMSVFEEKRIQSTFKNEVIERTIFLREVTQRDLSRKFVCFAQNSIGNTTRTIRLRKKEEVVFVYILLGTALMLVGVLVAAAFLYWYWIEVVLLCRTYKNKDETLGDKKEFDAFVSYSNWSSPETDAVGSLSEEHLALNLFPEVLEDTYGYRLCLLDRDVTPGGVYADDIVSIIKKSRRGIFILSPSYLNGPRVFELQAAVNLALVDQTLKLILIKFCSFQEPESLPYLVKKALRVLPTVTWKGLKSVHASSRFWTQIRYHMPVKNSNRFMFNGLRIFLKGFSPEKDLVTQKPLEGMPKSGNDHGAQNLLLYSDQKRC

Chain of mIL-18 (purchased from PeproTech) (murine (printed as mIL-18)) (P70380 36-192 limits assumed): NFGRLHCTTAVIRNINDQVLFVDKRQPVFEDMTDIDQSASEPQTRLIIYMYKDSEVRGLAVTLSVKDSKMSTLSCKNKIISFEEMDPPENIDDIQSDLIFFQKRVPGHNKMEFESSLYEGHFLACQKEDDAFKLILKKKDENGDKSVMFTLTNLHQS

Substance	inhibition of mIL-18 induced NFκB-luciferase activity in Cos7 cells transfected with mIL-1Rrp1 and mAcPL (10 ng/ml mIL-18 preincubated with the protein) [1]	luciferase activity (RLU) at 20 ug/ml and 50 ug/ml of the protein mixture; uninduced cells 3×10e3 RLU, mIL-18 without receptor-Fc 25×10e3 RLU [1]	increase in NFκB DNA binding activity (NFκB-Luc luciferase reporter), COS cells, 40 ng/mL IL-18 for 4 hours [2]	increase in NFκB DNA binding activity (NFκB-Luc luciferase reporter), S49.1 cells, 40 ng/mL IL-18 for 4 hours [2]
heterogeneous mIL-1Rrp1-Fc+mAcPL-Fc protein mixture (homodimers of mIL-1Rrp1-Fc, homodimers of mAcPL-Fc, and heterodimeric mIL-1Rrp1-Fc/mAcPL-Fc molecules) (from UniProt Q61098 20-322; Q9Z2B1 20-356) (Fc fusion)	87%	6000 RLU		
mIL-18 (purchased from PeproTech) (from UniProt P70380 36-192) (ligand)			10 fold	300 fold
